In patent publication US20030165887A1 (BURNHAM INSTITUTE, published 2003):

What was measured:
Assay in all cases: co-immunoprecipitation, transfected HEK293T cells, SDS-PAGE/immunoblot
pro-Caspase-2 = target: T1, pro-Caspase-2 (UniProt P42575 1-452, limits assumed)
T1 sequence (looked up): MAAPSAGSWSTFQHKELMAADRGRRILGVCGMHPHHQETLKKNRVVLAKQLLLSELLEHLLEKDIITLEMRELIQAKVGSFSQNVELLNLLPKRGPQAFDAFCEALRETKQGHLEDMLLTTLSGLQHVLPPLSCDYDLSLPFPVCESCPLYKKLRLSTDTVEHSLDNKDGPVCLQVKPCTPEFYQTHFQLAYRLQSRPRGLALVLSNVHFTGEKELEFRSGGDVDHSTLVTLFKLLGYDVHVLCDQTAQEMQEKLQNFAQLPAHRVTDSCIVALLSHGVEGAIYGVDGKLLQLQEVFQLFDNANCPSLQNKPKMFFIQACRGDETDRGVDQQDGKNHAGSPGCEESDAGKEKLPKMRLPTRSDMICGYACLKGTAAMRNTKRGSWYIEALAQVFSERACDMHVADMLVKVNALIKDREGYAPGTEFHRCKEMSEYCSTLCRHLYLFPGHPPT
Protocol: (§1) The TUCAN polypeptides were expressed by transient transfection in HEK293T cells together with epitope-tagged pro-caspase-9 or other proteins. […] Cell lysates were prepared from transfected cells and immunoprecipitations were performed using anti-Flag or anti-Myc antibodies, followed by SDS-PAGE/immunoblot analysis.

CARD9 = target: T2, CARD9 (UniProt Q9H257 1-536, limits assumed)
T2 sequence (looked up): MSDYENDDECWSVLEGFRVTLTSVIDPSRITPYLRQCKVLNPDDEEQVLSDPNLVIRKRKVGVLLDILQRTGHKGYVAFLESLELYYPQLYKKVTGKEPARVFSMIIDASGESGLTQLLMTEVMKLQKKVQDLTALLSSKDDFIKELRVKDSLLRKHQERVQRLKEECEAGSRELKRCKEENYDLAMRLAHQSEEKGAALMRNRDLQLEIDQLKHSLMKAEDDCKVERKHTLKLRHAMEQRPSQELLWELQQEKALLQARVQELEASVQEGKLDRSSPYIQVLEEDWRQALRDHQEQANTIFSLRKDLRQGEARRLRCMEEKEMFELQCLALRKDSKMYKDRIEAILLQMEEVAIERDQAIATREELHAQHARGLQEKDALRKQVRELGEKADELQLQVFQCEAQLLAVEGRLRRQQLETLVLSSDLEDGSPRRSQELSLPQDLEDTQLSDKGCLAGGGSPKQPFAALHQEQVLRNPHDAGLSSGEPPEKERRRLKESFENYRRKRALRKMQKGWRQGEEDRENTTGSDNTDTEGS
Protocol: as §1

Cardiak (RIP2) = target: T3, Cardiak (RIP2) (UniProt O43353 1-540, limits assumed)
T3 construct: also called RICK
T3 sequence (O43353 whole entry): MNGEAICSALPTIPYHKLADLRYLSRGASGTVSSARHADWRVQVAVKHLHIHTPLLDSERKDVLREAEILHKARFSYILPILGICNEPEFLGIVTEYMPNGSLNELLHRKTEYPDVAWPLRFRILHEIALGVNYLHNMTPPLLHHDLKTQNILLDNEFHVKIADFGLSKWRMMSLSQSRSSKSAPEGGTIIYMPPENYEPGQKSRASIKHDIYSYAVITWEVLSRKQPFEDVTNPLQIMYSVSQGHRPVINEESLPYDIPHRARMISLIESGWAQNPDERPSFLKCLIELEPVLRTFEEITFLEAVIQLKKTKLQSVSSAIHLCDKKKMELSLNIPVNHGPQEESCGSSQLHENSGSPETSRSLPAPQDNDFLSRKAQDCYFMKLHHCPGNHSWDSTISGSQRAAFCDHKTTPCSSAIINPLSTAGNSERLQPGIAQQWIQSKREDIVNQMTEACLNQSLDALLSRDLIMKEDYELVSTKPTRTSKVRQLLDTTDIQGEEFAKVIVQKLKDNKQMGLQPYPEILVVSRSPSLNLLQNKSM
Protocol: as §1

Apaf1 = target: T4, Apaf1 (human, UniProt O14727 1-1248)
T4 sequence: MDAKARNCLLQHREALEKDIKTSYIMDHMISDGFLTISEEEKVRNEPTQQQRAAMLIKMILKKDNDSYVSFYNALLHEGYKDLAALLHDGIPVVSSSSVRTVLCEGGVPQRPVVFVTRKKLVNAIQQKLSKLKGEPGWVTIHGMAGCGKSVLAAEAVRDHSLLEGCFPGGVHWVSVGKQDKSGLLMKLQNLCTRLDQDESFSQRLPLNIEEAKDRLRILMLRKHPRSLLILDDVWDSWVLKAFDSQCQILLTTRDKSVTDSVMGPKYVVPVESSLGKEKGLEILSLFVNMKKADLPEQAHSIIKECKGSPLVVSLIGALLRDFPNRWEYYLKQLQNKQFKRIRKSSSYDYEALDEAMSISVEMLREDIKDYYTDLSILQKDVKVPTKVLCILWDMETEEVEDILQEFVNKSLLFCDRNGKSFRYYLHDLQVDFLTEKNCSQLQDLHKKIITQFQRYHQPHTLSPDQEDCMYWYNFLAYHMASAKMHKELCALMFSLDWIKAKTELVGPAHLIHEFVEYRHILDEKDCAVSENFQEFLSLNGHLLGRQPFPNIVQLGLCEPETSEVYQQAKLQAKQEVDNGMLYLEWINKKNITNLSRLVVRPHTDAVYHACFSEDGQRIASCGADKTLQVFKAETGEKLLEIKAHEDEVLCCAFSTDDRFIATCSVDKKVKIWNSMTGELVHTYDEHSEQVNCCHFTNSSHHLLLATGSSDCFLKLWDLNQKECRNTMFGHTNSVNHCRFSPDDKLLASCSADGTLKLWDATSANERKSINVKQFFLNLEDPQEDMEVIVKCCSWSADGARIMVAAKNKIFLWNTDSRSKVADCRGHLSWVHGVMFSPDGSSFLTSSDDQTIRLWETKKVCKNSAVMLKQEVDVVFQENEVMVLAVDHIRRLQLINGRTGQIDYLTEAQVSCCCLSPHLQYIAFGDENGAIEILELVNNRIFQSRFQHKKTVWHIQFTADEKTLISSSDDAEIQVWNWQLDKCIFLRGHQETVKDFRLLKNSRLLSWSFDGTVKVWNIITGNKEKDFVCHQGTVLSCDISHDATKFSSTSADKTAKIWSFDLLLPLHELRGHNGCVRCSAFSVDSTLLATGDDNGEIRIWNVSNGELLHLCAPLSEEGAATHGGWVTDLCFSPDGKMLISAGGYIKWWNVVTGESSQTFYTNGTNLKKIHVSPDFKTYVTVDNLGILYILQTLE
Protocol: as §1

- binding result (pro-Caspase-2): no binding
- binding result (CARD9): no binding
- binding result (Cardiak (RIP2)): no binding
- binding result (Apaf1): no binding
B1: TUCAN (Tumor Up-regulated CARD-containing Antagonist of Caspase Nine), full-length (other)
chain: MMRQRQSHYCSVLFLSVNYLGGTFPGDICSEENQIVSSYASKVCFEIEEDYKNRQFLGPEGNVDVELIDKSTNRYSVWFPTAGWYLWSATGLGFLVRDEVTVTIAFGSWSQHLALDLQHHEQWLVGGPLFDVTAEPEEAVAEIHLPHFISLQGEVDVSWFLVAHFKNEGMVLEHPARVEPFYAVLESPSFSLMGILLRIASGTRLSIPITSNTLIYYHPHPEDIKFHLYLVPSDALLTKAIDDEEDRFHGVRLQTSPPMEPLNFGSSYIVSNSANLKVMPKELKLSYRSPGEIQHFSKFYAGQMKEPIQLEITEKRHGTLVWDTEVKPVDLQLVAASAPPPFSGAAFVKENHRQLQARMGDLKGVLDDLQDNEVLTENEKELVEQEKTRQSKNEALLSMVEKKGDLALDVLFRSISERDPYLVSYLRQQNL
notes: Full-length TUCAN expressed by transient transfection in HEK293T cells; also called full-length TUCAN; CARD-X
